± gives the uncertainty stated by the source.

A short description of the data set: amyloid nucleation score (Sup35N fusion, yeast selection) (log enrichment); library NNK1; higher = more nucleation; inactive = no reads after selection. The method, boiled down:
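The nucleation score equals the log enrichment of output over input reads from DiMSum, centred on the mode score of non-aggregating sequences. It was computed only for sequences with 100 or more input reads. The reads came from Illumina sequencing of plasmid inserts from psi-negative yeast expressing Sup35N fused to peptides of 20 random codons, induced with 100 μM copper sulfate for 24 hours and grown 7 days at 30°C without adenine and uracil.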
With YCVTSMVRRLVKMLYDCRGV, the amyloid nucleation score entry is “inactive”. Regarding YDHCEGCWMSNRMWELGWKG, the amyloid nucleation score was found to be 0.048 ± 0.33. Next, YDIGFVI: -0.067 ± 0.28; YDKFFGVSIDDR: 0.038 ± 0.59.

Substance YDLRNICTSTLMSHVNRFYV came in with an amyloid nucleation score of -1.22 ± 0.83. YDQGVPTDVLILIAIEHQLS displayed an amyloid nucleation score of 5.53 ± 0.077. In turn, YDTNDGFMTGVQ yielded an amyloid nucleation score of -1.56 ± 1.3. Substance YELTRIR had an amyloid nucleation score of 2.38 ± 0.17. The result for YFDRNFARYFCYRVTTT reads 1.48 ± 0.2.

YFFDIGVDSCMRFDIRVVET displayed an amyloid nucleation score of 1.77 ± 0.6. As for YFFFYYYVVTIRKLLHVMGT, the amyloid nucleation score was -0.854 ± 0.63. YFGYRCDYRCNPPLAPLCAN yielded an amyloid nucleation score of 0.515 ± 0.43.

For YFKAMEVTFSFWH, the amyloid nucleation score was determined as 0.491 ± 0.23. As for YFKEFWIWLW, the amyloid nucleation score result was “inactive”. Substance YFRVLGN yielded an amyloid nucleation score of -0.011 ± 0.3. YFSDKVSSAFT: the amyloid nucleation score is 0.318 ± 0.37.

As to YFSTRKYTSKGYCVRTLFAY, the amyloid nucleation score was -0.406 ± 0.27. Next, YFTNPRCRLDAHGGFANQWW: -0.977 ± 1.4; YFVFFLRDLFWRRKI: 0.408 ± 0.41; YFVLKCSC: 2.05 ± 0.49.

YFWASHISSVYLNLETCDTM registered an amyloid nucleation score of -0.417 ± 0.42. As for YFYDTWGA, the amyloid nucleation score was -0.235 ± 0.47. With YFYFLVNISFISIKGCLFMP, the amyloid nucleation score was 0.121 ± 0.4. For the substance YFYTSHFSLLTSTQFIYRLG, the amyloid nucleation score was found to be 0.392 ± 0.33. In the case of YGDGMGPWCYCWAFAEPRRS, the amyloid nucleation score turned out to be 0.114 ± 1.1. Take YGFSNYRMIVQLYNLFSMYD: the amyloid nucleation score turned out to be 3.04 ± 0.21. Regarding YGGLEVSLGALQNVGVKPYT, the amyloid nucleation score was -0.189 ± 1.1.

With YGHLDPFTKLWSLWGIIMNW, the amyloid nucleation score entry was “inactive”. As to YGHLTAGGCWSGQTNNARLG, the amyloid nucleation score was -0.488 ± 0.9.

Regarding YGISVMIYDRPAISACQIKH, the amyloid nucleation score is 2.71 ± 0.11.

YGLPLWCNMCSRSANRC showed an amyloid nucleation score of 0.365 ± 0.48. YGRATIWNYKSSMDGPKNGK: the amyloid nucleation score entry is “inactive”. The result for YGRSP reads 0.597 ± 0.46.

With YGTNRSWGDMEKISSHKRCW, the amyloid nucleation score was -0.321 ± 0.34.

The substance YHCLWGFVGVLKSDSLRDRR registered an amyloid nucleation score of 0.602 ± 0.38. For YHDVGSAVRMLYQMGPKRVF, the amyloid nucleation score was -0.442 ± 1.4.

As to YHILGCKIVNVIDTALGPWL, the amyloid nucleation score was found to be 5.8 ± 0.06. Regarding YHIMGFSSYGGVVRWMSS, the amyloid nucleation score is -0.312 ± 0.36. With YHNFNSV, the amyloid nucleation score came to 0.164 ± 0.34.

On to YHSWECLHRTANIIWEYFRD, for which the amyloid nucleation score is -0.019 ± 0.81. The substance YIDEIY had an amyloid nucleation score of -0.759 ± 0.35. Regarding YIDVFVSRVLHSGFERSDVV, the amyloid nucleation score stood at 0.745 ± 0.2. With YIHDQIIALFKQDLFSGSLH, the amyloid nucleation score was 0.961 ± 0.69.

Regarding YIKAGLFGCYMVAGGAYNPV, the amyloid nucleation score worked out at 1.58 ± 0.31.

YILACAKVTEDPVSVSMKCA returned an amyloid nucleation score of -0.278 ± 0.74. With YILKGNYLYRRVQLDLRTRR, the amyloid nucleation score is -0.244 ± 0.28. Next, YILSSLPFRHLLGVNICFTA: -0.364 ± 0.31. YIMFDVLLTDKRPSSSVCSC: the amyloid nucleation score worked out at 3.41 ± 0.069. The result for YIQLVI reads -0.279 ± 0.32; that for YIVPQLT, 1.47 ± 0.81; that for YIWAFLVGFVLTHYCSPHPD, -1.07 ± 0.68.

With YIYNWRYN, the amyloid nucleation score amounted to 1.71 ± 0.54. YKANCVETLSWSFGHNFFLR displayed an amyloid nucleation score of -0.481 ± 0.49. In turn, YKASG yielded an amyloid nucleation score of 0.794 ± 1.1. YKCVYFGMETAVGNTAQERP came in with an amyloid nucleation score of 0.861 ± 0.77. For the substance YKHWLYKLSCLEARSEYCGF, the amyloid nucleation score amounted to 0.444 ± 1.1. YKSNKWSPSQKRKG gave an amyloid nucleation score of -1.37 ± 2.7. As to YKSSILPTEFGFACKPWGHL, the amyloid nucleation score amounted to 0.3 ± 0.55.

YKSVRSVVWWCLRNSLHFVW: the amyloid nucleation score is 1.91 ± 0.6. As for YKVNNFKTFSLWNMFLDSNC, the amyloid nucleation score was determined as 4.47 ± 0.064. YLAKISSHDPGIAMMEMTGR yielded an amyloid nucleation score of 0.315 ± 0.35. The result for YLAQL reads 0.558 ± 0.43; that for YLAWNM, 1.8 ± 0.34; that for YLCPVRDFNGLYGLVFM, -0.756 ± 1.7. YLFGGSWDCGLYISGIPCWS returned an amyloid nucleation score of 1 ± 0.48.

In turn, YLFTYRRVTWGSTLQS showed an amyloid nucleation score of 1.65 ± 0.48. YLIDSSTPDFR: the amyloid nucleation score was determined as 0.314 ± 0.3.

As for YLLPEPKQCVSPE, the amyloid nucleation score was 0.625 ± 0.5. YLLTHQRKTSLQE showed an amyloid nucleation score of 1.06 ± 0.97. In turn, YLPVYNY yielded an amyloid nucleation score of 0.487 ± 0.65. YLQEWRIGRVGCVGFTCRCR yielded an amyloid nucleation score of 0.279 ± 0.45. YLRFTV came in with an amyloid nucleation score of 2.57 ± 0.27. Next, YLRKIRVLNMGAAAEKALLG: 0.641 ± 0.68.

As to YLRLKKMSVGVWGVIDRCLV, the amyloid nucleation score came to 0.995 ± 0.51. As to YLRPGCSSVRSNATMGNSYL, the amyloid nucleation score worked out at 0.641 ± 0.45. As to YLWLYVLSRTWVFNKHPSPI, the amyloid nucleation score was -0.543 ± 0.41. YMCHKRAFV showed an amyloid nucleation score of 3.32 ± 0.12.

In turn, YMDVTGDVK displayed an amyloid nucleation score of -0.067 ± 0.85. The result for YMGHDC reads 0.011 ± 0.21; that for YMNIVDVLAWGDRWVLLVWK, 0.425 ± 0.48; that for YMNNRLRWNRRHPYLSCFMS, 1.1 ± 0.94.

YMNTFVIRSMHSLLNGYAFS showed an amyloid nucleation score of 0.429 ± 0.88. Consider YMRRVLPRCHPIWNGFPFAR, for which the amyloid nucleation score is 0.254 ± 0.93. On to YMTWL, for which the amyloid nucleation score was found to be 0.676 ± 0.44. In turn, YMVYILSVCDLRFLWTRSGG came in with an amyloid nucleation score of -0.053 ± 0.49. In turn, YNCFMFAMFARSDSYMGIAS came in with an amyloid nucleation score of 0.597 ± 0.26.

Take YNDMVICSTTDGTLSYCRHF: the amyloid nucleation score was 0.329 ± 0.26.

Substance YNEERGCSAC registered an amyloid nucleation score of -0.209 ± 0.33.

The substance YNFFGCVCDAPPPKCLVYFM displayed an amyloid nucleation score of 7.596 ± 0.075. Consider YNGGLRVMICLPECLLFSLI, for which the amyloid nucleation score was -0.246 ± 0.49. Take YNGVCSNW: the amyloid nucleation score was 0.13 ± 0.48. As for YNHIEFGWCLLVGFVMRKSR, the amyloid nucleation score is 3.53 ± 0.12. YNIVMMDS: the amyloid nucleation score stood at 0.108 ± 0.36. The result for YNLRMDGVCGTVLRYVVEGR reads -0.403 ± 1.4; that for YNMNFVSLVLGARRVYALSM, 3.62 ± 0.12; that for YNRIIYYCGVM, 0.782 ± 0.97. YNSRRAWDACCFGLVPLWEC showed an amyloid nucleation score of 2.08 ± 0.3.

Take YPLFCNDHVGSSTLRRR: the amyloid nucleation score is -0.065 ± 0.35. Turning to YPRPLWANRRPC, the amyloid nucleation score was -0.151 ± 0.66. Next, YPSIGLRVLLNYCDPTDTGA: 0.255 ± 1.2; YPVVHDM: -0.426 ± 0.56; YQKTNPMELWLPSL: “inactive”. For YQQSCWVLYGTNLRYSNQSW, the amyloid nucleation score was found to be 1.74 ± 0.14.

Regarding YQTGYGGCGYCRLVRGCVKV, the amyloid nucleation score was -0.442 ± 0.33. In turn, YQVPKKVAATIGTAWARKRA had an amyloid nucleation score of 0.279 ± 0.29.

For the origin of these results see the supplement of paper PMC12042874.
